The conditions of data set [1]: purified recombinant protein in buffers similar to culture media; Steinmetz and colleagues; cited from earlier work.
Data set [2] can be described thus: Circular dichroism spectroscopy, helical content. The note with it: dissolved in 50% TFE in PBS, without dialysis. It counts as physicochemical. The method, then:
Purified recombinant stathmin was exposed to two different conditions that differentially affect the extent of helix formation within the protein chain. One part of the protein preparation was exposed to 5% trifluoroacetic acid (TFA) in water for 1 h at 37° C., strongly acidic conditions that tend to disrupt an alpha helix. […] […] Next, the samples were analyzed by […] circular dichroism spectroscopy that allows calculation of helical content on the basis of elipticity in the absorption of circularly polarized light. In both cases, another part of the dialyzed sample was tested in parallel for induction of TLR3-mediated release of CXCL8 (IL-8) in human astrocytes as described elsewhere in this application.
In general terms: Circular dichroism is widely used to follow secondary structure.

The test system of data set [3] is pre-dendritic cells (pre-DC). Description: CXCL8 accumulation in culture of human pre-dendritic cells. It counts as cell-based. As to conditions: 24 h, varying doses, two donors. The text has this:
(§1) Peripheral blood mononuclear cells (PBMC) were isolated from two healthy blood donors and from part of the cells, CD14^+ monocytes were isolated by positive selection using magnetic beads coated with an antibody against CD14. The purified CD14^+ monocytes were subsequently cultured for 5 days in the presence of IL-4 and granulocyte-macrophage colony stimulating factor (GM-CSF). These growth factors induce differentiation of monocytes into pre-dendritic cells (pre-DC) within this time frame. At this stage part of the pre-DC culture was stimulated with a mixture of IL-1β and TNF-α for another 2 days in culture, thus stimulating final maturation of the cells into plasmacytoid dendritic cells (DC).
(§2) Using this differentiation method, separate populations of PBMC, pre-DC and DC were generated and after washing of the cells to remove all previously used stimuli, cells were subsequently re-cultured in fresh medium and tested for their response to either poly I:C, stathmin or LPS. Accumulation of CXCL8 in the culture medium over a 24-h period was used as a measure for cellular activation.

Data set [4] deals with peripheral blood mononuclear cells (PBMC). Description: CXCL8 accumulation in culture of human PBMC. It counts as cell-based. As to conditions: 24 h, varying doses, two donors.
Excerpt: as §1, §2

Data set [5] relates to plasmacytoid dendritic cells (DC). Description: CXCL8 accumulation in culture of human mature plasmacytoid dendritic cells. It counts as cell-based. As to conditions: 24 h, varying doses, two donors.
Excerpt: as §1, §2

For a further data set, the target named is T1, TLR2 (Homo sapiens, UniProt O60603).
T1 construct: expressed in transfected cells; host or cells: HEK293
T1 sequence (O60603 21-784, species assumed): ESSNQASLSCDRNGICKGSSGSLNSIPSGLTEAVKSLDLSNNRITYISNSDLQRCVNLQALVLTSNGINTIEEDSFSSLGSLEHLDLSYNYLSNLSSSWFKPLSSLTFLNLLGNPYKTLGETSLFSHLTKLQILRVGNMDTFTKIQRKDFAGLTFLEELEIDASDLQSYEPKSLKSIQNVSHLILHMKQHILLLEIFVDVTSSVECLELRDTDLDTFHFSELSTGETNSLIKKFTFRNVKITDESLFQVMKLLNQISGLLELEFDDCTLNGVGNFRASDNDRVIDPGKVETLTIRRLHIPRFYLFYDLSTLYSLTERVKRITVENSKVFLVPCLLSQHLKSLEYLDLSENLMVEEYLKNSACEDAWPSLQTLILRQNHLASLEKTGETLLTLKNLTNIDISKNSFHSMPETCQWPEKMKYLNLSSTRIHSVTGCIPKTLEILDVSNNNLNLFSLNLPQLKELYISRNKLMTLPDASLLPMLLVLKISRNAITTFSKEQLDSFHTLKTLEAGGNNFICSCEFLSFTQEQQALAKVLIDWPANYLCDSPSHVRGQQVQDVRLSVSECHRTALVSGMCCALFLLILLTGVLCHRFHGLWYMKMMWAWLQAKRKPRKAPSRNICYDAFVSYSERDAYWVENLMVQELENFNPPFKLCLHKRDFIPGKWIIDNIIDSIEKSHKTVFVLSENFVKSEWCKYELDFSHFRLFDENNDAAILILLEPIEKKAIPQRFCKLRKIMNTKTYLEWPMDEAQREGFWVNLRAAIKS
Description: HEK293 transfectant cells, TLR2 activation. It counts as cell-based. As to conditions: at levels of at least 50 μg/mL. The method, then: Additional control experiments using murine astrocytes or transfected HEK293 cells were performed essentially as described previously by several other research groups.

B1: stathmin: cytosolic phosphoprotein of 149 amino acids (SEQ ID NO: 1); purified recombinant human stathmin from a commercial source (protein)
chain: MASSDIQVKELEKRASGQAFELILSPRSKESVPEFPLSPPKKKDFSLEEIQKKLEAAEERRKSHEAEVLKQLAEKREHEKEVLQKAIEENNNFSKMAEEKITHKMEANKENREAQMAAKLERLREKDKHIEEVRKNKESKDPADETEAD
modifications: Human; (44)..(138) Stathmin-like alpha helix domain
notes: purified recombinant human stathmin from a commercial source
As to B1, the “fraction structurally ordered into alpha helix” value in data set [1] is recorded as 40-60%. Further, the helical content in data set [2] turned out to be 98%. Besides, the “CXCL8 accumulation in the culture medium” value in data set [3], in data set [4] and in data set [5] was “substantial increase in CXCL8 accumulation” throughout. Also, the “response of HEK293 transfectant cells via TLR2” value with TLR2 is recorded as “does not contain any endotoxin contaminants that trigger responses”.

These data come from patent US20090253622A1, “USE OF TLR3 AGONISTS FOR THE TREATMENT OF NEURODEGENERATIVE DISORDERS” (Nederlandse Organisatie voor toegepast - …, priority 2006, published 2009).
